In paper PMC2808764:

Target: GST-βPIX (UniProt Q14155)
Assay: pull-down

fold amount pulled down, against GST-GIT1: 2 fold
Substance: His-tagged MYO18A-CB (His-MYO18A-CB) (domain or fragment)
